Experiments:
[1] = target: nectin-1 (human (endogenous in primary tonsil epithelial cells)) (UniProt Q15223)
[2] = target: nectin-1 (human (endogenous in primary tonsil epithelial cells)) (UniProt Q15223); remark: listed apart in the source

Sequence of UniProt Q15223 (Q15223 31-517): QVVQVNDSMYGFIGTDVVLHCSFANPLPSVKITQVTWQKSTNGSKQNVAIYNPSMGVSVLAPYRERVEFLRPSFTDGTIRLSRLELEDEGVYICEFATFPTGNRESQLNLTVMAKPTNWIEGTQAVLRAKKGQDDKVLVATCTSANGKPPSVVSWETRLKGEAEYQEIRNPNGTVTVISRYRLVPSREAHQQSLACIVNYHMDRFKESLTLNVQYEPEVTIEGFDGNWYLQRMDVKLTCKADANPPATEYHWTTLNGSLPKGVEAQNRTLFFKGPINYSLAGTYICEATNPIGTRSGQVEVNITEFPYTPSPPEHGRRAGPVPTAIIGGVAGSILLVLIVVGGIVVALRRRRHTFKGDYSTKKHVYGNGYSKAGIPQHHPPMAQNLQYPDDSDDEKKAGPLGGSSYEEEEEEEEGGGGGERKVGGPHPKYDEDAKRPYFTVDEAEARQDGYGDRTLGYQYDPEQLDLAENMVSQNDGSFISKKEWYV

truncated form of HSV-1 gD ectodomain gD(306t) (domain or fragment)
HSV-1 infection (percent of infected cells, 24 h) of polarized tonsil cells treated with active tat/gp120 or HIV virions; reduction by preincubation with anti-nectin-1 antibody CK-8 (10 µg/ml) [1]: 70%
HSV-1 plaque numbers in polarized tonsil cells treated with active tat/gp120; reduction by anti-gD antibodies (10 µg/ml) [2]: 30%
HSV-1 plaque numbers in polarized tonsil cells treated with active tat/gp120; reduction by anti-nectin-1 antibodies (10 µg/ml) [2]: 40%
HSV-1 plaque numbers in polarized tonsil cells treated with active tat/gp120; reduction by the combination of anti-gD and anti-nectin-1 antibodies [2]: 60%
HSV-1 plaque size (infected cells per plaque, cell-to-cell spread) in polarized tonsil cells treated with active tat/gp120; reduction by anti-gD antibodies (10 µg/ml) [2]: 60%
HSV-1 plaque size (infected cells per plaque, cell-to-cell spread) in polarized tonsil cells treated with active tat/gp120; reduction by anti-nectin-1 antibodies (10 µg/ml) [2]: 50%
HSV-1 plaque size (infected cells per plaque, cell-to-cell spread) in polarized tonsil cells treated with active tat/gp120; reduction by the combination of anti-nectin-1 and anti-gD antibodies [2]: 70%

From publication PMC3931628
